Article PMC10143249, “The Non-Canonical Iron-Responsive Element of IRE-tvcp12 Hairpin Structure at the 3′-UTR of Trichomonas vaginalis TvCP12 mRNA That Binds TvHSP70 and TvACTN-3 Can Regulate mRNA Stability and Amount of P”

Assays:
[1] = target: T1, TvACTN-3r (alpha-actinin 3) (Trichomonas vaginalis, UniProt X5FVA1 1-1129); assay: Northwestern blot; REMSA: 20 uL, 0.2 ng 32P-RNA, 1 ug hIRP-1r or 50 ug T. vaginalis extract, 5 ug heparin, 10 min at 25 C, 6% native gel; buffer, salt and pH not given; Northwestern conditions not given; conditions: protein: recombinant; label: 32P (alpha-32P UTP); hairpin
T1 sequence: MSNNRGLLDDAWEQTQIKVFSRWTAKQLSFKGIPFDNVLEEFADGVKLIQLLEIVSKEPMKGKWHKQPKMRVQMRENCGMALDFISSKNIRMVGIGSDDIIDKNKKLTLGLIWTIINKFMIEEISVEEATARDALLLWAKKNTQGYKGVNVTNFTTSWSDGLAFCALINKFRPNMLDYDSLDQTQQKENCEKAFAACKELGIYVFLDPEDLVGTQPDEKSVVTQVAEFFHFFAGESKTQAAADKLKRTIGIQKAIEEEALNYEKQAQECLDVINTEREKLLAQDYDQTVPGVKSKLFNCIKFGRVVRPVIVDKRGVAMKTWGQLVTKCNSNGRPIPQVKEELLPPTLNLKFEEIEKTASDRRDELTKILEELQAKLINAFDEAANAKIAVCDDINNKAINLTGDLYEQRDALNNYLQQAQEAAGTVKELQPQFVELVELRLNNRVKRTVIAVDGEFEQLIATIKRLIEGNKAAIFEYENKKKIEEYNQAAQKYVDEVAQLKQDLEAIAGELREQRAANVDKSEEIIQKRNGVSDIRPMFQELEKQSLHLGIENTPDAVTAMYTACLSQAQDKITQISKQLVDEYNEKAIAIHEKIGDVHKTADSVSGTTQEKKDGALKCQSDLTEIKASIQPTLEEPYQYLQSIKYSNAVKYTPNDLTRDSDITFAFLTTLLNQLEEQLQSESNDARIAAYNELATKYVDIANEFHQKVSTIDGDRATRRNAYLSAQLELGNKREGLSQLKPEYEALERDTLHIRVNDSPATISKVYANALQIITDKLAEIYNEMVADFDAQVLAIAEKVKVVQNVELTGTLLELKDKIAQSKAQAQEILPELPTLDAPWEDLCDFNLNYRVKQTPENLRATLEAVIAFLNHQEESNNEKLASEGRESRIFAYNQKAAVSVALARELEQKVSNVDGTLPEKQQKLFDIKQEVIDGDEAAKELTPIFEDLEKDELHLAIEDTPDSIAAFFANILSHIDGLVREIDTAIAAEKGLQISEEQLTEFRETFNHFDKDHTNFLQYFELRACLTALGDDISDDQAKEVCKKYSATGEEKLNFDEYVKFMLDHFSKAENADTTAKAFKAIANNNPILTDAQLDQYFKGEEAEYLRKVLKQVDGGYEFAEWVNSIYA

[2] = target: T2, hIRP-1r (iron regulatory protein 1) (human, UniProt P21399 1-889); assay: EMSA; 5 ug heparin; REMSA: 20 uL, 0.2 ng 32P-RNA, 1 ug hIRP-1r or 50 ug T. vaginalis extract, 5 ug heparin, 10 min at 25 C, 6% native gel; buffer, salt and pH not given; Northwestern conditions not given; conditions: protein: recombinant; (pGEX plasmid); label: 32P (alpha-32P UTP); hairpin
T2 sequence: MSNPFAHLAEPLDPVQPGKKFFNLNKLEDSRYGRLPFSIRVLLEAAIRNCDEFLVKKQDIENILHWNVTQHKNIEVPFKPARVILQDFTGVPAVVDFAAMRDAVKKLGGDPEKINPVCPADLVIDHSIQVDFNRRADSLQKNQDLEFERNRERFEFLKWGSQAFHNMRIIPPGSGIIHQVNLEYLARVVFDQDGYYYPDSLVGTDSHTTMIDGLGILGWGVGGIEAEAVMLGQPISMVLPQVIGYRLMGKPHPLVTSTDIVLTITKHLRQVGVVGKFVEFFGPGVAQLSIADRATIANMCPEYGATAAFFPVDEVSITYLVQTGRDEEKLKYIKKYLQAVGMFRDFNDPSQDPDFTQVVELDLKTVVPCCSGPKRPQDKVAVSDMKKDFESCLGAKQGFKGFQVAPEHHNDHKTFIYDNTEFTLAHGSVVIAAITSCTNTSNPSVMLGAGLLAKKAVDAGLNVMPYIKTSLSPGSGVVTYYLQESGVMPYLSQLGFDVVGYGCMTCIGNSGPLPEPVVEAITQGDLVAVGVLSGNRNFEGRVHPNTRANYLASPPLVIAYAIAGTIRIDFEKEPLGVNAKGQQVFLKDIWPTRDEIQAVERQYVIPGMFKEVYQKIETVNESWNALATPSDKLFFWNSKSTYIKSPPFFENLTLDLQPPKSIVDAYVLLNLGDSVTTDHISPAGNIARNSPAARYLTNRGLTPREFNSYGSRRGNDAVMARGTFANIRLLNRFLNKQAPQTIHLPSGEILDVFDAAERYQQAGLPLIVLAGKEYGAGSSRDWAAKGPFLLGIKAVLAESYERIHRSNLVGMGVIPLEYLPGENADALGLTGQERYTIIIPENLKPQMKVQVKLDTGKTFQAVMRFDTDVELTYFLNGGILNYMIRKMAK

GGGACGUAUUUAAUUGAUUGCG (structured_RNA) [IRE-tvcp12 (wild type)]: binds [1]; binds [2].
